Data set [1] deals with HeLa Kyoto. Description: melting temperature (median over replicates), in situ; higher = more thermally stable.
The subject of data set [2] is HeLa Kyoto. Briefly: thermal stability score vs G1/S (z-score of summed log2 fold changes over temperatures); higher = more thermally stable than in G1/S.
Data set [3] has as its system HeLa Kyoto. Briefly: solubility change mitosis vs G1/S (difference of NP-40 vs SDS log2 ratios) (log2 ratio difference); higher = more soluble in mitosis.
Data set [4] has as its system HeLa Kyoto. Description: solubility in G1/S (NP-40 vs SDS abundance) (log2 ratio); higher = more soluble. To be noted: cell cycle stage: G1/S.
Setting [5] is: cell cycle stage: early G1 (4.5 h after nocodazole release).
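Wherever melting temperature (median over replicates), in situ is given: HeLa Kyoto cells synchronized by double thymidine or nocodazole block, proteins quantified by TMT10plex mass spectrometry, three independent biological replicates.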
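Wherever solubility change mitosis vs G1/S (difference of NP-40 vs SDS log2 ratios) is given: synchronized HeLa Kyoto cells (double thymidine block for G1/S, nocodazole release for mitosis), protein amounts in NP-40 versus SDS lysates quantified by mass spectrometry, three biological replicates.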
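Wherever solubility in G1/S (NP-40 vs SDS abundance) is given: HeLa Kyoto cells arrested at G1/S by double thymidine block, proteins quantified by TMT10plex mass spectrometry in mild NP-40 versus SDS extracts, three biological replicates.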
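Wherever thermal stability score vs G1/S (z-score of summed log2 fold changes over temperatures) is given: synchronized HeLa Kyoto cells, proteins quantified by TMT10plex mass spectrometry, three biological replicates, mitosis taken 0.5 h after nocodazole release, G1/S directly after double thymidine block.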

In the case of “MLFIFNFLFSPLPTPALICILTFGAAIFLWLITRPQPVLPLLDLNNQSVGIEGGARKGVSQKNNDLTSCCFSDAKTMYEVFQRGLAVSDNGPCLGYRKPNQPYRWLSYKQVSDRAEYLGSCLLHKGYKSSPDQFVGIFAQNRPEWIISELACYTYSMVAVPLYDTLGPEAIVHIVNKADIAMVICDTPQKALVLIGNVEKGFTPSLKVIILMDPFDDDLKQRGEKSGIEILSLYDAENLGKEHFRKPVPPSPEDLSVICFTSGTTGDPKGAMITHQNIVSNAAAFLKCVEHAYEPTPDDVAISYLPLAHMFERIVQAVVYSCGARVGFFQGDIRLLADDMKTLKPTLFPAVPRLLNRIYDKVQNEAKTPLKKFLLKLAVSSKFKELQKGIIRHDSFWDKLIFAKIQDSLGGRVRVIVTGAAPMSTSVMTFFRAAMGCQVYEAYGQTECTGGCTFTLPGDWTSGHVGVPLACNYVKLEDVADMNYFTVNNEGEVCIKGTNVFKGYLKDPEKTQEALDSDGWLHTGDIGRWLPNGTLKIIDRKKNIFKLAQGEYIAPEKIENIYNRSQPVLQIFVHGESLRSSLVGVVVPDTDVLPSFAAKLGVKGSFEELCQNQVVREAILEDLQKIGKESGLKTFEQVKAIFLHPEPFSIENGLLTPTLKAKRGELSKYFRTQIDSLYEHIQD [ACSL5]”, the melting temperature in data set [1] (cell cycle stage: G1/S) amounted to 51.8 °C; in data set [1] (cell cycle stage: mitosis) it was 51.1 °C. The thermal stability score in data set [2] (setting [5]) is -0.104; in data set [2] (cell cycle stage: mitosis), -0.53. Also, the “solubility change mitosis (log2)” value in data set [3] was -0.0802. Besides, in data set [4], the “solubility in G1/S (log2)” value is -0.0641.
Regarding “MLFLALGSPWAVELPLCGRRTALCAAAALRGPRASVSRASSSSGPSGPVAGWSTGPSGAARLLRRPGRAQIPVYWEGYVRFLNTPSDKSEDGRLIYTGNMARAVFGVKCFSYSTSLIGLTFLPYIFTQNNAISESVPLPIQIIFYGIMGSFTVITPVLLHFITKGYVIRLYHEATTDTYKAITYNAMLAETSTVFHQNDVKIPDAKHVFTTFYAKTKSLLVNPVLFPNREDYIHLMGYDKEEFILYMEETSEEKRHKDDK [TMEM70]”, the melting temperature worked out at 54.1 °C in data set [1] (cell cycle stage: G1/S) and 53.4 °C in data set [1] (cell cycle stage: mitosis). Further, the figures for the thermal stability score in data set [2] (setting [5]) and in data set [2] (cell cycle stage: mitosis) were 0.217 and -1.65, respectively. The “solubility change mitosis (log2)” value in data set [3] is -0.344. Moreover, the “solubility in G1/S (log2)” value in data set [4] was -0.0239.
On to “MLFYSFFKSLVGKDVVVELKNDLSICGTLHSVDQYLNIKLTDISVTDPEKYPHMLSVKNCFIRGSVVRYVQLPADEVDTQLLQDAARKEALQQKQ [LSM2]”, for which the melting temperature in data set [1] (cell cycle stage: G1/S) came to 59.9 °C; in data set [1] (cell cycle stage: mitosis), 57.5 °C. In addition, the thermal stability score was -1.17 in data set [2] (setting [5]) and -1.99 in data set [2] (cell cycle stage: mitosis). For the same sequence, the “solubility change mitosis (log2)” value in data set [3] was 0.0659. For the same sequence, in data set [4], the “solubility in G1/S (log2)” value is -0.0676.
Consider “MLGMIKNSLFGSVETWPWQVLSKGDKEEVAYEERACEGGKFATVEVTDKPVDEALREAMPKVAKYAGGTNDKGIGMGMTVPISFAVFPNEDGSLQKKLKVWFRIPNQFQSDPPAPSDKSVKIEEREGITVYSMQFGGYAKEADYVAQATRLRAALEGTATYRGDIYFCTGYDPPMKPYGRRNEIWLLKT [HEBP1]”, for which the melting temperature turned out to be 52.9 °C in data set [1] (cell cycle stage: G1/S) and 53.3 °C in data set [1] (cell cycle stage: mitosis). Further, the thermal stability score is -1.08 in data set [2] (setting [5]) and -2.04 in data set [2] (cell cycle stage: mitosis). In data set [3], the “solubility change mitosis (log2)” value turned out to be 0.0399. The “solubility in G1/S (log2)” value in data set [4] is 0.27.
In data set [1] (cell cycle stage: mitosis), “MLGPHLPPPPLAPSEGRPTPCAFQIPDGSYRCLALEAEESSGEEGLQGEVGPTDLEEDEGVSRSGDDSACRVTQGTPQLPKALGIQPPSCSREEQGASQHDDRASQDWDVVKAGQMMTASPSPGPGPRVAQKPALGRSTSLTEKDLKEAKARSQQIAAQLTTPPSSNSRGVQLFNRRRQRVNEFTLESHGQRGQKPSQESLRVLPSSLPGHAPGLSLSSTSLPEPGPPRHPSPQSPDRGVPGHSMEGYSEEASLLRHLEKVASEEEEVPLVVYLKENAALLTANGLHLSQNREAQQSSPAPPPAEVHSPAADVNQNLASPSATLTTPTSNSSHNPPATDVNQNPPATVVPQSLPLSSIQQNSSEAQLPSNGTGPASKPSTLCADGQPQAPAEEVRCSTLLIDKVSTPATTTSTFSREATLIPSSRPPASDFMSSSLLIDIQPNTLVVSADQEMSGRAAATTPTKVYSEVHFTLAKPPSVVNRTARPFGIQAPGGTSQMERSPMLERRHFGEKAPAPQPPSLPDRSPRPQRHIMSRSPMVERRMMGQRSPASERRPLGNFTAPPTYTETLSTAPLASWVRSPPSYSVLYPSSDPKSSHLKGQAVPASKTGILEESMARRGSRKSMFTFVEKPKVTPNPDLLDLVQTADEKRRQRDQGEVGVEEEPFALGAEASNFQQEPAPRDRASPAAAEEVVPEWASCLKSPRIQAKPKPKPNQNLSEASGKGAELYARRQSRMEKYVIESSSHTPELARCPSPTMSLPSSWKYPTNAPGAFRVASRSPARTPPASLYHGYLPENGVLRPEPTKQPPYQLRPSLFVLSPIKEPAKVSPRAASPAKPSSLDLVPNLPKGALPPSPALPRPSRSSPGLYTSPGQDSLQPTAVSPPYGGDISPVSPSRAWSPRAKQAPRPSFSTRNAGIEAQVWKPSFCFK [SYNPO]” gave a melting temperature of 52.8 °C. Besides, the results for the thermal stability score in data set [2] (setting [5]) and in data set [2] (cell cycle stage: mitosis) were -0.595 and -3, respectively. The “solubility change mitosis (log2)” value in data set [3] was determined as 1.62. Besides, in data set [4], the “solubility in G1/S (log2)” value is -1.65.
“MLGSLVLRRKALAPRLLLRLLRSPTLRGHGGASGRNVTTGSLGEPQWLRVATGGRPGTSPALFSGRGAATGGRQGGRFDTKCLAAATWGRLPGPEETLPGQDSWNGVPSRAGLGMCALAAALVVHCYSKSPSNKDAALLEAARANNMQEVSRLLSEGADVNAKHRLGWTALMVAAINRNNSVVQVLLAAGADPNLGDDFSSVYKTAKEQGIHSLEDGGQDGASRHITNQWTSALEFRRWLGLPAGVLITREDDFNNRLNNRASFKGCTALHYAVLADDYRTVKELLDGGANPLQRNEMGHTPLDYAREGEVMKLLRTSEAKYQEKQRKREAEERRRFPLEQRLKEHIIGQESAIATVGAAIRRKENGWYDEEHPLVFLFLGSSGIGKTELAKQTAKYMHKDAKKGFIRLDMSEFQERHEVAKFIGSPPGYVGHEEGGQLTKKLKQCPNAVVLFDEVDKAHPDVLTIMLQLFDEGRLTDGKGKTIDCKDAIFIMTSNVASDEIAQHALQLRQEALEMSRNRIAENLGDVQISDKITISKNFKENVIRPILKAHFRRDEFLGRINEIVYFLPFCHSELIQLVNKELNFWAKRAKQRHNITLLWDREVADVLVDGYNVHYGARSIKHEVERRVVNQLAAAYEQDLLPGGCTLRITVEDSDKQLLKSPELPSPQAEKRLPKLRLEIIDKDSKTRRLDIRAPLHPEKVCNTI [CLPB]”: the melting temperature in data set [1] (cell cycle stage: G1/S) turned out to be 52 °C; in data set [1] (cell cycle stage: mitosis), 51.8 °C. Further, the thermal stability score in data set [2] (setting [5]) is 0.555; in data set [2] (cell cycle stage: mitosis), 0.467. For the same sequence, the “solubility change mitosis (log2)” value in data set [3] is -0.0294. The “solubility in G1/S (log2)” value in data set [4] was 0.0358.
“MLHFNRCHHLKKITQKCFSSIHVKTDKHAQRFLSRTFALAELRKSWYSTHSLVGDKNIILMGPPGAGKTTVGRIIGQKLGCCVIDVDDDILEKTWNMSVSEKLQDVGNEQFLEEEGKAVLNFSASGSVISLTGSNPMHDASMWHLKKNGIIVYLDVPLLDLICRLKLMKTDRIVGQNSGTSMKDLLKFRRQYYKKWYDARVFCESGASPEEVADKVLNAIKRYQDVDSETFISTRHVWPEDCEQKVSAKFFSEAVIEGLASDGGLFVPAKEFPKLSCGEWKSLVGATYVERAQILLERCIHPADIPAARLGEMIETAYGENFACSKIAPVRHLSGNQFILELFHGPTGSFKDLSLQLMPHIFAHCIPPSCNYMILVATSGDTGSAVLNGFSRLNKNDKQRIAVVAFFPENGVSDFQKAQIIGSQRENGWAVGVESDFDFCQTAIKRIFNDSDFTGFLTVEYGTILSSANSINWGRLLPQVVYHASAYLDLVSQGFISFGSPVDVCIPTGNFGNILAAVYAKMMGIPIRKFICASNQNHVLTDFIKTGHYDLRERKLAQTFSPSIDILKSSNLERHLHLMANKDGQLMTELFNRLESQHHFQIEKALVEKLQQDFVADWCSEGECLAAINSTYNTSGYILDPHTAVAKVVADRVQDKTCPVIISSTAHYSKFAPAIMQALKIKEINETSSSQLYLLGSYNALPPLHEALLERTKQQEKMEYQVCAADMNVLKSHVEQLVQNQFI [THNSL1]”: the melting temperature in data set [1] (cell cycle stage: G1/S) turned out to be 52.5 °C; in data set [1] (cell cycle stage: mitosis), 52.7 °C. The thermal stability score in data set [2] (setting [5]) is 0.435; in data set [2] (cell cycle stage: mitosis), -0.697. Further, the “solubility change mitosis (log2)” value in data set [3] was -0.0759. The “solubility in G1/S (log2)” value in data set [4] is -0.0605.

These data come from the supplement of paper PMC5998384.
